Assay results as given in publication PMC2783993 (Biotechnology progress, 2009).

Target: the molecule itself
Experiment: LC-MS

B1: bovine hemoglobin β globin chain (natural protein)
chain: not shown
  stoichiometry N: 2
